US20230265151A1, “GIP/GLP1 CO-AGONIST COMPOUNDS” (priority 2020, published 2023)

T1: human GIP receptor (human, UniProt P48546 22-466)
T1 construct: whole, on cells; also called hGIPR; human glucose-dependent insulinotropic polypeptide receptor
T1 sequence (looked up): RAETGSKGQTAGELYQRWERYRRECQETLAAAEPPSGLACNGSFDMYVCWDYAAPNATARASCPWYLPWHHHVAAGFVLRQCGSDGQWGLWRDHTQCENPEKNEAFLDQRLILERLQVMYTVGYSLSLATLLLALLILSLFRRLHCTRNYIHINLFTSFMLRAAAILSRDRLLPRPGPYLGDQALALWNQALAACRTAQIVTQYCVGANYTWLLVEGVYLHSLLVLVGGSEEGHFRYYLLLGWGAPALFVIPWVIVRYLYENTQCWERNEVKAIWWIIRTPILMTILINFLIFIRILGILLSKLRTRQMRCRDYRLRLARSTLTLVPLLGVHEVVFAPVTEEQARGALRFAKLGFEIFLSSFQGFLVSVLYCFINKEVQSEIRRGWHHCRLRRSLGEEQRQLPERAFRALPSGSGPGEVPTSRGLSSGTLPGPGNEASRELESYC


How the values were obtained:
human GIP receptor = target: T1, human GIP receptor; test: SPA competition vs [125I]-GIP, hGIPR membranes
Description: (§1) The binding buffer contains 25 mM HEPES, pH 7.4, 2.5 mM CaCl₂, 1 mM MgCl₂, 0.1% (w/v) bacitracin, 0.003% (w/v) TWEEN®-20, and Roche Complete™ Protease Inhibitors without EDTA. […] Plates are sealed and mixed on a plate shaker (setting 6) for 1 minute and read with a PerkinElmer Trilux MicroBeta® scintillation counter after 2.5 to 12 hours of incubation/settling time at room temperature.
(§2) Data are analyzed using four-parameter (curve maximum, curve minimum, IC₅₀, Hill slope) nonlinear regression routines (Genedata Screener, version 12.0.4, Genedata AG, Basal, Switzerland). […] Values for Kᵢ are reported as the geometric mean, with error expressed as the standard error of the mean (SEM) and n is equal to the number of independent replicates (determined in assays performed on different days). Geometric Means are calculated as follows: […]

human glucagon receptor [1] = target: T2, human glucagon receptor (human, UniProt P47871 26-477); test: SPA competition vs [125I]-Gcg, hGcgR membranes
T2 construct: whole, on cells; also called hGCGR; hGcgR
Description: as §1, with “4-(2-hydroxyethyl)-1-piperazineethanesulfonic acid (HEPES),” for “HEPES,”, “MgCh,” for “MgCl₂,”, “bacitracin (Research Products),” for “bacitracin,”, “Polyoxyethylenesorbitan monolaurate (TWEEN®-20),” for “TWEEN®-20,”, “after” for “after 2.5 to”
T2 sequence (P47871 26-477): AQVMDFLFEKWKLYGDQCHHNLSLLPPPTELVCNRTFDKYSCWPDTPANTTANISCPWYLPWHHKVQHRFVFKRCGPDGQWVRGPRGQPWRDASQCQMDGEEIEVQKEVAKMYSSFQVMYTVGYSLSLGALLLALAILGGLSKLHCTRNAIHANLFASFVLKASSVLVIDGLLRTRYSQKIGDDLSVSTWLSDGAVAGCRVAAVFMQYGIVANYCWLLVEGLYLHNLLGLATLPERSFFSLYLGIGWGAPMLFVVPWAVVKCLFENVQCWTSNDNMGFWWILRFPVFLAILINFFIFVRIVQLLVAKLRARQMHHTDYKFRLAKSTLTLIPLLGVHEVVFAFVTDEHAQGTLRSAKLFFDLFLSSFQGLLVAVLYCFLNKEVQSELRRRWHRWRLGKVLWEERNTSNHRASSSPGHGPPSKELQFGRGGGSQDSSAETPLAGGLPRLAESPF
Data are analyzed using four-parameter (curve maximum, curve minimum, IC₅₀, Hill slope) nonlinear regression routines (Genedata Screener, version 12.0.4, Genedata AG, Basal, Switzerland). […] Values for Kᵢ are reported as the geometric mean, with error expressed as the standard error of the mean (SEM) and n is equal to the number of independent replicates (determined in assays performed on different days).

human glucagon receptor [2] = target: human glucagon receptor (human, UniProt P47871 26-477); test: cell-based or functional assay
human GLP-1 receptor = target: T3, human GLP-1 receptor (human, UniProt P43220 24-463); test: SPA competition vs [125I]-GLP-1, hGLP-1R membranes
T3 construct: whole, on cells; also called hGLP-1R; human glucagon-like peptide-1 receptor
Description: The binding buffer contains 25 mM HEPES, pH 7.4, 2.5 mM CaCl₂, 1 mM MgCl₂, 0.1% (w/v) bacitracin, 0.003% (w/v) TWEEN®-20, and Roche Complete™ Protease Inhibitors without EDTA.
as §2

Row | Binder | Ki (human GIP receptor) | Ki (human glucagon receptor [1]) | cAMP EC50 (1.0% HSA) (human glucagon receptor [2]) | Ki (human GLP-1 receptor)
1 | YXEGTXTSDXSIXLDXKAQXEFIXXLIEGGKSSGAPPPS (Aib2, αMeF(2F)6, 4Pal10, αMeL13, Orn16, K17(Z1), Aib20, D-Glu24, αMeY25, K31(Z1), C-term NH2; Z1=AEEA2-CO-(CH2)12-CO2H) | 0.0557 nM | 209 nM | – | –
2 | YXEGTXTSDXSIXLDXKAQXEFIKXLIEGGPSSGAPPPS (Aib2, αMeF(2F)6, 4Pal10, αMeL13, Orn16, Aib20, αMeY25; acylated K17, K24 (groups as in name); C-terminal amide) | – | – | > 9950 nM | –
3 | YXEGTXTSDXSIXLDXKAQXEFIXXLIEGGKSSGAPPPS (Aib2, αMeF(2F)6, 4Pal10, αMeL13, Orn16, K17(Z1), Aib20, D-Glu24, αMeY25, K31(Z1), C-term NH2; Z1=AEEA2-(εK)-CO-(CH2)12-CO2H) | 0.117 nM | 264 nM | – | 1.34 nM
4 | YXEGTXTSDXSIXLDXKAQXEFIXXLIKGGPSSGAPPPS (Aib2, αMeF(2F)6, 4Pal10, αMeL13, Orn16, Aib20, D-Glu24, αMeY25; acylated K17, K28 (groups as in name); C-terminal amide) | – | – | > 9950 nM | –
5 | YXEGTXTSDXSIXLDXKAQXKFIXXLIEGGPSSGAPPPS (Aib2, αMeF(2F)6, 4Pal10, αMeL13, Orn16, Aib20, D-Glu24, αMeY25; acylated K17, K21 (groups as in name); C-terminal amide) | – | – | > 9950 nM | –
6 | YXEGTXTSDXSIXLDXKAQXEFIXXLIEGGKSSGAPPPS (Aib2, αMeF(2F)6, 4Pal10, αMeL13, Orn16, K17(Z1), Aib20, D-Glu24, αMeY25, K31(Z1), C-term NH2; Z1=(εK)-(γ-Glu)-CO-(CH2)12-CO2H) | 0.0608 nM | 174 nM | – | 0.803 nM
7 | YXEGTXTSDXSIXLDXKAQXEFIXXLIEGGKSSGAPPPS (Aib2, αMeF(2F)6, 4Pal10, αMeL13, Orn16, K17(Z1), Aib20, D-Glu24, αMeY25, K31(Z1), C-term NH2; Z1=(εK)-AEEA-(γ-Glu)-CO-(CH2)12-CO2H) | 0.103 nM | 611 nM | – | 1.47 nM
8 | YXEGTXTSDXSIXLDXKAQXEFIXXLIEGGKSSGAPPPS (Aib2, αMeF(2F)6, 4Pal10, αMeL13, Orn16, K17(Z1), Aib20, D-Glu24, αMeY25, K31(Z1), C-term NH2; Z1=AEEA-(εK)-(γ-Glu)-CO-(CH2)12-CO2H) | 0.077 nM | 868 nM | – | 1.38 nM
9 | YXEGTXTSDXSIXLDXIAQXKFIXXLIKGGPSSGAPPPS (Aib2, αMeF(2F)6, 4Pal10, αMeL13, Orn16, Aib20, D-Glu24, αMeY25; acylated K21, K28 (groups as in name); C-terminal amide) | – | – | > 9950 nM | –
10 | YXEGTXTSDXSIXLDXKAQXEFIXXLIEGGKSSGAPPPS (Aib2, αMeF(2F)6, 4Pal10, αMeL13, Orn16, Aib20, D-Glu24, αMeY25; acylated K17, K31 (groups as in name); C-terminal amide) | – | – | > 9950 nM | –
